Biological target: cell-surface MOG-specific IgG1 of 8.18-C5 hybridoma cells
Assay: flow cytometry on 8.18-C5 hybridoma cells, biotinylated rMOG and FITC-streptavidin

percent of cells that bound rMOG: > 90%
Substance: recombinant, biotinylated MOG (rMOG)

Source: US20040072749A1
